{"source": "paper PMC12238454", "about": "“Soyasaponin β-glucosidase confers soybean resistance to pod borer (Leguminivora glycinivorella)” (aBIOTECH, 2025)", "proteins": {"B1": {"name": "GmSSBG1 (SSBG1Δ24; GmBGLU13) (Glycine max) (protein)", "chain": "LDLSFLPSDFLFGIASSSYQYEGAYKSDGKGLSNWDNYTHGPGRSVIMDGSNGDIAIDHYHRYLEDIDLMETLGVNSYRLSLSWARILPKGRFGEPNHAGIEFYNRLIDVLLLKGIQPFVTLSHYDIPQELEDRYGSWLSPQLQEDFAFYADLCFKTFGDRVKYWVTFNEPNFLVSLGYRSGLYPPCRCSGQLAMAKCSEGDSEKEPFVAAHNVILSHAAAVDIYRTKYQTEQKGSIGIVLQHEWFEPMSNSTADKLASERARAFNFNWFLDPIIFGKYPTEMENVLGSLLPKFSSYEKEKLKRGLDFIGVNYYTAFYVQDCMYSACKPGPGISRTEGSYKKSGEKNGVPIGEPTPFSWFNIYPDGMEKTVTYVRDRYNNTPIFLTENGYAEEVDPNFTSEEHLNDFKRIKYMVDHIEALLAAIRKGADVRGYFAWTLIDSFEWIYGYTVRYGFHHVDYATLKRTPRLSASWYKQLLVQYKKTFLLGTSMTGHEKLVQHT", "notes": "N-terminal 24-residue signal peptide removed (SSBG1Δ24); MBP fusion from pMAL-c2x, E. coli BL21(DE3), amylose resin; tag removal not mentioned"}}, "assay_in_all_cases": "purified protein", "type_in_all_cases": "biochemical, Glycine max", "conditions_in_all_cases": "50 mM Na2HPO4-citric acid buffer, optimal pH 5.5 and temperature 42 °C, apparent Km, substrate 1.25-80 µM", "key": {"purified protein [1]": {"substrate": "CC1(C)C[C@H]2C3=CC[C@@H]4[C@@]5(C)CC[C@H](O[C@@H]6O[C@H](C(=O)O)[C@@H](O)[C@H](O)[C@H]6O[C@@H]6O[C@H](CO)[C@H](O)[C@H](O)[C@H]6O[C@@H]6O[C@H](CO)[C@@H](O)[C@H](O)[C@H]6O)[C@](C)(CO)[C@@H]5CC[C@@]4(C)[C@]3(C)CC[C@@]2(C)[C@H](O[C@@H]2OC[C@H](O)[C@H](O)[C@H]2O)[C@@H]1O"}, "purified protein [2]": {"substrate": "CC1(C)C[C@H]2C3=CC[C@@H]4[C@@]5(C)CC[C@H](O[C@@H]6O[C@H](C(=O)O)[C@@H](O)[C@H](O)[C@H]6O[C@@H]6O[C@H](CO)[C@H](O)[C@H](O)[C@H]6O)[C@](C)(CO)[C@@H]5CC[C@@]4(C)[C@]3(C)CC[C@@]2(C)[C@H](O[C@@H]2OC[C@H](O)[C@H](O)[C@H]2O)[C@@H]1O"}, "purified protein [3]": {"substrate": "C[C@@H]1O[C@@H](O[C@H]2[C@H](O[C@H]3[C@H](O[C@H]4CC[C@@]5(C)[C@@H](CC[C@]6(C)[C@@H]5CC=C5[C@@H]7CC(C)(C)[C@@H](O)[C@@H](O[C@@H]8OC[C@H](O)[C@H](O)[C@H]8O)[C@]7(C)CC[C@]56C)[C@@]4(C)CO)O[C@H](C(=O)O)[C@@H](O)[C@@H]3O)O[C@H](CO)[C@H](O)[C@@H]2O)[C@H](O)[C@H](O)[C@H]1O"}}, "data": [{"protein": "B1", "values": [{"measurement": "Km", "setting": "purified protein [1]", "result": 46.51, "unit": "µM"}, {"measurement": "kcat", "setting": "purified protein [1]", "result": 0.0040, "unit": "s⁻¹"}, {"measurement": "Km", "setting": "purified protein [2]", "result": 28.88, "unit": "µM"}, {"measurement": "kcat", "setting": "purified protein [2]", "result": 0.0018, "unit": "s⁻¹"}, {"measurement": "Km", "setting": "purified protein [3]", "result": 165.90, "unit": "µM"}, {"measurement": "kcat", "setting": "purified protein [3]", "result": 0.0072, "unit": "s⁻¹"}]}]}
